Assay [1] has as its target T1, NHE3 (Mus musculus, UniProt G3X939).
T1 construct: from tissue; host or cells: mouse jejunum, exposed in vitro
Put plainly: NHE3 activity in mouse jejunum in vitro, BCECF/microscopy. The settings on record: FIG. 4B. The class given is cell-based. The procedure:
(§1) FIG. 4A is a bar graph depicting the results when Caco-2/HA-NHE3 cells were exposed to IRCX-CP (400 nM) for 15 minutes then basal, carbachol (cch) (10 μM) inhibited and EGF (200 ng/ml) stimulated NHE3 were determined (n=4). FIG. 4B is another bar graph depicting the effects when mouse jejunum was exposed in vitro to IRCX-CP (400 nM) and/or forskolin (10 μM) for 15 minutes with NHE3 activity determined by BCECF.
The fluorescent peptides described above were then loaded into PS120/NHERF2/NHE3, Caco2/NHE3 cells, and mouse small intestine. It was established that loading reaches a maximum in 15 minutes (37° C.) (FIG. 3) and is stable for at least 6 hours. To evaluate the effect of these peptides on NHE3 regulation, PS120 and Caco-2 cells were exposed to 400-1600 nM Bodipy 577/618-peptide and used BCECF/fluorometry to characterize the peptide's effects on basal NHE3 activity and after Ca^2+ elevation and EGF exposure. In studies in both cell types, all peptide concentrations studied stimulated basal NHE3 activity by about 40%, and reduced Ca^2+ inhibition of NHE3 by about 50% in PS 120 cells (data not shown) and entirely in Caco-2 cells (FIG. 4A).

In assay [2] the test system is murine jejunum exposed to cholera toxin. The note with it: mouse, in vivo.
The target in assay [3] is T2, rabbit NHE3 (rNHE3) (Oryctolagus cuniculus, UniProt P26432). The class given is cell-based. The arrangement: amplified from pcDNA 3.1 containing the full-length NHE3V (pcDNA 3.1/NHE3V); expressed in transfected cells.
T2 sequence (P26432 30-832): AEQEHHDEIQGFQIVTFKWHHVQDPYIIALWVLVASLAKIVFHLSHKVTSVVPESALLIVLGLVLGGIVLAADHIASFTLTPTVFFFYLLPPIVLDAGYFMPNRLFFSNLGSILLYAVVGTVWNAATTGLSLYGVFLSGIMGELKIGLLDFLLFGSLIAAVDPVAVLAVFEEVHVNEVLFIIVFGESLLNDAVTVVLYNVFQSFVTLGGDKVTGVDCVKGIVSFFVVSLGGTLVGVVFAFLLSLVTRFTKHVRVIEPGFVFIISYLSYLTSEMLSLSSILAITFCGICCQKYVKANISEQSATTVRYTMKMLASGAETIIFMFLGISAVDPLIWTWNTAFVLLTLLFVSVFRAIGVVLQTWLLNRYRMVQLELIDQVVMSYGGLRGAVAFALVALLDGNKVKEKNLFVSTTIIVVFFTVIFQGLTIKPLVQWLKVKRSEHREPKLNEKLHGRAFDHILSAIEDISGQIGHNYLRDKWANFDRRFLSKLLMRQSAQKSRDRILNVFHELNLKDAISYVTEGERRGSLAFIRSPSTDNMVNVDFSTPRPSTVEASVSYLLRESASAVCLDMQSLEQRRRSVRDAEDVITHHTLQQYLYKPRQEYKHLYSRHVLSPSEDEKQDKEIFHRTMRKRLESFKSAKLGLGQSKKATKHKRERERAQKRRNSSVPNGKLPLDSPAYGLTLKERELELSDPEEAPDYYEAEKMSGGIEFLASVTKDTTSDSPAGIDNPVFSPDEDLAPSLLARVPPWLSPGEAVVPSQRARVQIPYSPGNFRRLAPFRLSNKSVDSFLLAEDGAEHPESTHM
Assay [4] concerns the target T2, rabbit NHE3 (rNHE3). Put plainly: BCECF/fluorometry Na+/H+ exchange activity in Caco-2 cells. The class given is cell-based. The arrangement: expressed in transfected cells; host or cells: Caco-2BBe cells, transient adenoviral infection (ADLOX.HTM shuttle vector, CMV promoter). The protocol: as §1
Cell Lines. PS120 fibroblasts lack all endogenous plasma membrane NHEs, NHERF1 (minimal expression), NHERF2, NHERF3 and NHERF4. These cells, when stably expressing rabbit NHE3 with a C-terminal VSV-G protein epitope tag and NHERF2, are called PS120/NHE3/NHERF2 cells (or PS120/E3V/NHERF2 cells), as described (stable cell lines made using pcDNA 3.1, G418 and hygromycin, Invitrogen). Caco-2BBe cells express all four members of the NHERF gene family and small amounts NHE3 (Caco-2BBe/3HA-NHE3 cells). Triple HA-tagged rabbit NHE3 was expressed by adenovirus into Caco-2BBe cells for transport and biochemical analysis.
Adenoviral Constructs/Infection. Caco-2BBe cells which endogenously express the four members of the NHERF gene family and small amounts of NHE3 were transiently infected with triple HA-tagged rNHE3 previously engineered into replication-deficient Adeno-viral shuttle vector ADLOX.HTM under a cytomegalovirus promoter. Caco-2BBe cells were first grown on Transwell filters (Corning) until 12 days post-confluence in “Caco-2 medium.” Cells were then treated with serum-free media containing 6 mM EGTA for 2 hours at 37° C. to allow the tight junctions to open, further exposing apical and basolateral surfaces to the virus. […]
Measurement of Na^+/H^+ Exchange. Cellular Na^+/H^+ exchange activity in PS 120 cells grown to about 70% confluency on glass coverslips was determined fluorometrically using the intracellular pH-sensitive dye 2′,7′-bis(carboxyethyl)5-6-carboxyfluoresceinacetoxymethyl ester (BCECF-AM, 5μM; Molecular Probes, Eugene, Oreg.). […] At the end of each experiment, the fluorescence ratio was calibrated to pHi using the high potassium/nigericin method. Na^+/H^+ exchange activity data were calculated as the product of Na^+ dependent changes in pHi times the buffering capacity at each pHi, and individual points shown in the figures are ratios of Na^+/H^+ exchange calculated at multiple pHi values using at least three coverslips per condition in a single experiment. Kinetics of Na^+/H^+ exchange were analyzed by Hill plot using Origin (Microcal Software) to estimate Vmax and K′(H^+)i in individual experiments. Means+/−S.E.M. were determined from at least three separate experiments. […]

Read-outs that look alike come from different tables or passages of the source. The star is where a group is joined. Biotin = O=C1N[C@H]2[C@H](CS[C@H]2CCCCC(=O)*)N1

T1 sequence (G3X939 27-829): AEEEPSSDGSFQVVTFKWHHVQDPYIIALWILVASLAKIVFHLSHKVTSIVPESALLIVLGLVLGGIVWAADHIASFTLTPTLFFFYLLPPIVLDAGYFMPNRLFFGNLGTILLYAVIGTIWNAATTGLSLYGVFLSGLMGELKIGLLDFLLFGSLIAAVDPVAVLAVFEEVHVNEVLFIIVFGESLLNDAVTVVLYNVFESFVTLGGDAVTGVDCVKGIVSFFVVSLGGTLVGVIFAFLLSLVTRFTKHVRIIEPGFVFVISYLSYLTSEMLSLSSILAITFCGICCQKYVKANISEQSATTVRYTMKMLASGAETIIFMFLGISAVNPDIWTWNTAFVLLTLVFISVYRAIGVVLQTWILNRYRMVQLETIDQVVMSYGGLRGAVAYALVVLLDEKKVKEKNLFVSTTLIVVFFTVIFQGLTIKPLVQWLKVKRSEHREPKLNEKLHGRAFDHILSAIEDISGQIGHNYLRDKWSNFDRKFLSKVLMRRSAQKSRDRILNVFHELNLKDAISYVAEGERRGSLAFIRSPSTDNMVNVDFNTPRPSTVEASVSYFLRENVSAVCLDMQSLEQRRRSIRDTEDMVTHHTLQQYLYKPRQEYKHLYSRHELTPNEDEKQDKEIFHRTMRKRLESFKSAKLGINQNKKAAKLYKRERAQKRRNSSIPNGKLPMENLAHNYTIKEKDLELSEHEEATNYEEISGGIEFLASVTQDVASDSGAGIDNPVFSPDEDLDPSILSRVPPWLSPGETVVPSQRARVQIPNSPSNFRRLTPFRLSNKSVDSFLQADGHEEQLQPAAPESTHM

Consider “Bodipy 577/618-peptide: 38 aa rabbit NHE3 aa 568-605 peptide (SEQ ID NO: 1), biotin on N-terminus, C-terminus linked to Bodipy 577/618 maleimide (Biotin-NVDFSTPRPSTVEASVSYLLRESASAVCLDMQSLEQRR-{Bodipy 577/618 maleimide}; listed as Oryctolagus cuniculus)”, for which the “stimulation of basal NHE3 activity” value in assay [1] (400 nM, 15 minutes) is 60%; in assay [3] it was “about 40%”; in assay [4] (400-1600 nM peptide, all concentrations studied) it was “about 40%”. Further, the “prevention of NHE3 inhibition by forskolin” value in assay [1] (forskolin 10 μM, 400 nM peptide) is listed as “totally prevented”. For the same substance, the “cholera toxin fluid accumulation” value in assay [2] is given as “prevented cholera toxin fluid accumulation”. The “peptide concentration at which effects were maximum” value in assay [3] and in assay [4] (effect at saturation) was 400 nM in each case. Also, the “reduction of Ca2+ inhibition of NHE3” value is listed as “about 50%” in assay [3] and “entirely” in assay [4] (after Ca2+ elevation (carbachol 10 μM), FIG. 4A).

With “NVDFSTPRPSTVEASVSYLLRESASAVCLDMQSLEQRR (listed as Oryctolagus cuniculus) [peptide without Bodipy]”, the “effect on NHE3 activity” value in assay [3] and in assay [4] was “did not alter NHE3 activity” each time.

Source of the values: US9850292B2, “Compositions which regulate the epithelial brush border Na+/H+ exchanger NHE3 and their methods of use in gastrointestinal disease” (THE JOHNS HOPKINS UNIVERSITY, priority 2012, dated 2017).
